# Data: the supplement of paper PMC9170038
# System: K4 kissing-loop RNA reporter
# Experiment: apparent KD of K4 kissing-loop reporter; higher = weaker reporter binding
# Settings: Eterna round: R107; input ligand: FMN 200 uM
# Description: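 RNA-MaP round R107: designed RNA switches with theophylline, tryptophan, arginine or FMN aptamers are transcribed on-chip within common flanks. They are titrated with a labelled K4 kissing-loop RNA reporter in RNA-MaP buffer (100 mM Tris pH 7.5, 80 mM KCl, 4 mM MgCl2), without ligand or with the indicated ligand. Median apparent KD per design.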
# 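Note: bound reporter read as fluorescence of individual clusters on recovered sequencing chips by microscopy, with normalized cluster intensities fitted with a binding model.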
row,Sequence,apparent KD of K4 kissing-loop reporter [µM]
1,AAUCCUAACGGAGUGAUGUUCCGUAGCGAUACCAGCCAUUGCGAUGGCCCUUGGCAGCGCUAUAAGCAUUGCUAGUAAGGGCCAA [Theo A Ex t7],0.167
2,AAGUGUGUGGCGGCCGCCACUAGAAUCCAGUGAUGUUGGAGUUAUCAGAUAAAUGAUAAUCAACAUAGGACCGGGCCAUAUAGAA [Same State - Tryptophan B (Freestyle 5)],0.703
3,CCUAUCUCUUACGAUACCAGUCAAUGAUAUUUUAUCAAUGCCCUCACCGAGUGAUGUUCGGACCCUUGGCAGCGUCUGGGAUAGG [pvppimullin],0.223
4,AAUUACCUAGUGAUGUUGGGAAUAAUAUAACGAGGACCGGUACGGCCGCCACUCGAGGUCCUAAUUAAGAACGCGAAAGCGAAGA [Tryptophan A Exclusion; Euphoria Solution],0.0944
5,UUGGAGUGAUGUUCCAUGUCUUGAGCCGAAGGAGCGCCUUUCUAGGCAGGUAGGUCGCGGCAGAAGGUACCAGUGAUGUUGGAAA [Same State Arginine A GF9],0.161
6,UGCUUUAUCAGAAGGAGCGCGUUAUUCAUAAUAAUAAUCAGUGAUGUUGAUAUAUGAUGAUUGCAGGUAGGUCGCUGAUAUAGCU [KL-XARG-B3],0.31
7,AGAUAGGGCUGAAGGAGCGUCGGAGAAGAGAAGAAGGAAUCCAGUGAUGUUGGAUAAAUCCGACAGGUAGGUCGCAGUUUUAUGA [hbob_SS_Arginine_B_2t138],0.108
8,UAUUUAGUGACGGCCGCCACUAUGGUGAUUUAUUUGUUUGAGUGAUGUUUUGAUGUUUGAUUUUGUAGGACCGGGUUAUGUGUUG [yyycmullin],0.891
9,AUUAAUUUCAGAGGAUAUGCUUUAUUAUUAUUUUUAAAUAAUAUAAGCAGUGAUGUUGCUUUUUAUGCAGAAGGCUGAUUUAUAA [JR_SSFMNB_Sub016],0.137
10,CUUAUUUCUCGCUAUGAUGUUAGUUGAGCCAAGGAUAUUAAUGAAUUAAGAAGGUGGGUUUUUAAGUGAUGUUUUGAGACUGGCA [theeternabot_exclusion_KL_FMN_A_27],0.793
11,CCAUCGCUAUUCGAUACCAGCCAGGAGGUCUUUGGCCUCCUAUUGGAGUGAUGUUCCAUAGGCCCUUGGCAGCGAAUAGUGAUGG [Theophylline B K4 16],0.372
12,GCAGGAUAGCGCGGUGCAGUGAUGUUGCACCGAGGACCGGUACGGCCGCCACUCGCUUAGAUAUCGUGUGAUGGGUAUGUCUAGA [theeternabot_exclusion_KL_Trp_A_8],0.116
13,AGUGCACUGUCAGGAUAUAUACAGUGAUGUUGUGUAUGUCAGCAAGUCAAAGACUUGCUAUUCUGUGUAGAAGGGACUGUGUACA [Omei KL FMN B Exc A v1],0.607
14,GUGGCGACGCAAGGAUAUGGGUGCUAGUGAUGUUAGCCUUUGCUCCAUGUCACGUGGUCUGCACACCCAGAAGGUGCGGGAAGAU [theeternabot_exclusion_KL_FMN_B_9],0.482
15,AAGUGAUGUUGUAGUGAUGUUGUGAUGUUGCAGGAUAUAUAGUGAUGUAGAAGGGUAUGUGCAGUGUUGUUGUUUGAGUGUUGAU [twwumullin],0.0903
16,AAGUGAUGUUGUAGUGAUGUUGUGAUGUUGCAGGAUAUAUAGUGAUGUAGAAGGGUAUGUACUUAUUUUUUAUUUGAGUUAUGUU [mmvmmullin],0.0721

row,Sequence,apparent KD of K4 kissing-loop reporter [µM]
1,AAGAGGUAGGCGGCCGCCACUUGUUGUGAACACAUACGAGCCAGUGAUGUUGGUAUUGUGUGCGGAAGGACCGGGCCUACCUGAA [Exclusion - Tryptophan B (Freestyle 21)],0.146
2,GGAGUUACCUGGGAUACCAGUCGGAGUCCCAGAGCUCAGAGUGAUGUUCUGGGAUGUUUCGGCCCUUGGCAGCUCUGGGACUCCC [#2 Exclusion - Theophylline B Attempt #12 (HarryS)],0.535
3,CGUUGUGAUGCUUGUGCUCAUACCGGAGAUACCAGUACCAUCACUUACCCUUGGCAGCUCAGUAAAGACAAGUGAUGUUUGUCAC [theeternabot_sameState_KL_Theo_A_38],0.684
4,GCAGGACGAGGAGGAGGAUGAAUUACUGAAGGAGCGCAUAUUUUUGCAGGUAGGUCGCGGUAAACAAGUAUAGUGAUGUUAUAUC [SSArgA.N],0.445
5,AGACCACAAAGUGGUCAGUGUUCGCUGCCGCGAGGACCGGUACGGCCGCCACUCGCGAGUGAUGUUCGCGAGGGCAGCGAACACA [Omei KL Tryp A Exc A v4],0.0997
6,AUUAAGAUAUGAGUGAUGUUUAUGUCCGAAGGAGCGUGCGAAAGUACAGGUAGGUCGCGGAUGUGAGUGAUGUUUAUGUAAGCGU [KL-XArg-A15 #analogue],0.109
7,AUAGGCAUAGCCCGAGUGAUGUUCGACGAUACCAGCCUCGAUAGAGGCCCUUGGCAGCGUAAAUGAUCAUGAAGCCAAGGAAUUA [whbob_Ex_Theo_A_th70],0.36
8,CAGAACUUGUAUACAGGGCAUGCCAGAGAUACCAGUCAAAUGGAAGGCCCUUGGCAGCUCAGGCGAGUGAUGUUCGCAGGCUGAC [Exclusion Theophylline A GF 19],0.14
9,AGACUACUGAUAGGAUAUAACAUCCUAGUCGUAUACCGAAAGGUAUACGAUUUCCUUCUAGUGAUGUUAGAAGGGUCGGUAGUCA [Omei KL FMN B Exc B v11],0.106
10,GGAUAGGAGAGAGGAUAUGGGCUAGGCAAGAAUAACUUGUCUAGCAAAUCCAUGAGGAGUGAUGUUCCAGAAGGCUCUCCUAUCG [FmnBX 1 G9+C77],0.996
11,CAAAACGAGUGAUGUUCGGACAACAACGUUAAGGAUAUACUUCUCUGUAGAAGGUAACAGUAUUUAUAUUUCAUCAACGAAAAUG [theeternabot_exclusion_KL_FMN_A_12],0.213
12,AAAUAUUCGAGUGAUGUUCGAUAAAUUUCAGAGGAUAUGCUUAAAAGCAGAAGGCUGUAUUUCUAUUUGUUAUGAAAUUUUAUAA [JR_ExcFMNA_Sub003],0.103
13,GGAUAGGACAGAGGAUAUGGACAGUCUACAAAGUAGGCUGAAAAUCCUUGAAUGGAAGUGAUGUUUCCAGAAGGCUGUCCUAUCG [FmnBX 20 - #SwitchBubble #StaticStem #Palindromic],0.558
14,GUUCUCGAAACUCAGUGAUGUUGAGUUGCAGAGGAUAUCCGCACAUGGAGAAGGCUGCAGUAAUUUAAAGACUCAGCGGCGCUCC [Riare],0.112
15,UUUAUGAUGUCGGCCGCCACUGGAUUAAUAUGUGUGUAAUCUAGUUCUGAGUGAUGUUUAGAGUCCAGGACCGGGACAUUUGUUA [#11 K4 Tryptophan B Exclusion],0.542

# Same assay, conditions: Eterna round: R107; input ligand: arginine 13.2 mM
row,Sequence,apparent KD of K4 kissing-loop reporter [µM]
1,AAUCCUAACGGAGUGAUGUUCCGUAGCGAUACCAGCCAUUGCGAUGGCCCUUGGCAGCGCUAUAAGCAUUGCUAGUAAGGGCCAA [Theo A Ex t7],0.148
2,AAGUGUGUGGCGGCCGCCACUAGAAUCCAGUGAUGUUGGAGUUAUCAGAUAAAUGAUAAUCAACAUAGGACCGGGCCAUAUAGAA [Same State - Tryptophan B (Freestyle 5)],0.689
3,CCUAUCUCUUACGAUACCAGUCAAUGAUAUUUUAUCAAUGCCCUCACCGAGUGAUGUUCGGACCCUUGGCAGCGUCUGGGAUAGG [pvppimullin],0.17
4,AAUUACCUAGUGAUGUUGGGAAUAAUAUAACGAGGACCGGUACGGCCGCCACUCGAGGUCCUAAUUAAGAACGCGAAAGCGAAGA [Tryptophan A Exclusion; Euphoria Solution],0.0605
5,UUGGAGUGAUGUUCCAUGUCUUGAGCCGAAGGAGCGCCUUUCUAGGCAGGUAGGUCGCGGCAGAAGGUACCAGUGAUGUUGGAAA [Same State Arginine A GF9],0.225
6,UGCUUUAUCAGAAGGAGCGCGUUAUUCAUAAUAAUAAUCAGUGAUGUUGAUAUAUGAUGAUUGCAGGUAGGUCGCUGAUAUAGCU [KL-XARG-B3],0.225
7,AGAUAGGGCUGAAGGAGCGUCGGAGAAGAGAAGAAGGAAUCCAGUGAUGUUGGAUAAAUCCGACAGGUAGGUCGCAGUUUUAUGA [hbob_SS_Arginine_B_2t138],0.126
